Molecular target: ectodomain construct of MuSK (ectoMuSK) (aa1-472) (Homo sapiens (assumed), UniProt O15146, biotin on the Avitag (site-specific, BirA))
Experiment: BLI

Chain of ectodomain construct of MuSK (ectoMuSK) (aa1-472) (O15146 24-472): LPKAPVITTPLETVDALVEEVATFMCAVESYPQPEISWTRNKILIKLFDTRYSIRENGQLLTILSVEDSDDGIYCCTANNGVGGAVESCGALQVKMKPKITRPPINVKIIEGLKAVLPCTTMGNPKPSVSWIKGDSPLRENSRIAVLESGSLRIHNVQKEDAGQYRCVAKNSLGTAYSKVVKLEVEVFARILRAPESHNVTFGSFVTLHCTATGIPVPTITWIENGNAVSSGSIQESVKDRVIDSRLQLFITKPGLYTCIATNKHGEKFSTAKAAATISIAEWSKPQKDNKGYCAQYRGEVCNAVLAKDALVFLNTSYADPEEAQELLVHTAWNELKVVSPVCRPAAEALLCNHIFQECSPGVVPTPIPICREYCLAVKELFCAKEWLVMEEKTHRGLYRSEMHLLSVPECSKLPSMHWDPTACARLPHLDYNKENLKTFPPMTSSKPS

Kd | Binder
0.41 nM | Fab MuSK1A (mature) (Fab, V domains shown) VH: QVQLVQSGAEVKKPGASVKVSCKTSGYTFNNYDINWVRQAAGQGLEWMGWMNPYSGNTGYAQKFQGRVTMTRNISITTVYMELSSLRSEDTAVYYCAREVRGDTGYGGGSDYWGQGTLVTVSS VL: SYELTQPPSVSLSPGQTATITCSGDKLDDNYVCWYQQKPGQSPVLVIYQDTMRPSGIPERFSGSNSGNIATLTISGTQAVDEADYYCQAWDGSTVVFGGGTRLTVL
0.44 nM | Fab MuSK1B (mature) (Fab, V domains shown) VH: EVQLVEWGAGLLKPSETLSLTCAVYGGSFSGDYWWTWIRQPPGKGLEWIGEIDHTGNTNYNPSLKSRLTLSVDMSKNHFSLKLTSVTAADTALYFCARQEGLGYYDSWGQGTLVTVSS VL: SYELTQSPSVSVSPGQTANITCSGDKLGDRYASWYQQKPAQSPVLVIYQDDRRPSGIPERFSGSNSGNTATLTISGTQGMDEADYYCQAWDGTTVFGGGTKLTVL
